Data published in patent publication US20190322762A1 (DEVELOPMENT CENTER FOR BIOTECHNOLOGY, published 2019).

Key:
[1] = target: T1, human ENO1 protein (human, UniProt P06733 1-434); assay: ELISA, human ENO1 coated on the plate; upper plateau of the four parameter logistic fit
T1 construct: Purified human ENO1 protein coated on ELISA plates or injected as SPR analyte; also called alpha-enolase; enolase-1
Experimental: (§1) To determine the binding activity of each mutant antibody, 400 ng/100 μL of human ENO1 protein was coated on a 96-well ELISA overnight at 4° C. and the plate further was washed by PBS. The plate was blocked with 1% BSA (w/v) in PBS at room temperature for 1 hour, then washed again with 1×PBS. EN10.4, EN10.5, and humEN10 mAb antibodies were 2-fold serial diluted to 15 different concentrations and added to the plate at 37° C. for 1 hour. After the reaction was complete, the plate was washed 3 times with 1×PBS. A 1/8000 dilution of goat anti-human-HRP antibody was added and incubated at 37° C. for 1 hour, and then the plate washed 3 times with 1×PBS. The TMB substrate was added and reacted at room temperature for 30 minutes. The reaction was stopped by adding 1N HCl, and OD 450 was read to determine the activity. Every study was repeated three times. Data are presented as mean±SD. OD readings and concentrations of antibody were used to make a multiple scatter figure by Sigmaplot. The KD values were predicted by four parameter logistic fit.
(§2) There is no significant affinity difference among three different editions of hum EN10 mAb antibodies. […] Due to the structure similarity between cysteine and serine, EN10.5 is chosen to generate antibody production cell lines.

[2] = target: T1, human ENO1 protein; assay: ENO1 binding ELISA
[3] = target: T1, human ENO1 protein; assay: ELISA, 400 ng/100 µL human ENO1 coated, antibody in 15 two-fold dilutions, four parameter logistic fit
Experimental: as §1, §2

[4] = target: T1, human ENO1 protein; assay: SPR, BIAcore 2000, antibody on the chip, ENO1 0.3125 nM to 40 nM as analyte, 25 degree C
Excerpt: (§3) To know the binding kinetics difference among individual antibodies, surface plasmon resonance (SPR) measurement with a BIAcore 2000 (BIAcore. Inc., Piscataway, N.J.) was used as previously described (Karlsson & Falt, (1997) J. Immunol Methods 200:121-133). Carboxymethylated dextran biosensor chips (CM5, BIAcore Inc.) were activated with N-ethyl-N′-(3-dimethylaminopropyl)-carbodiimide hydrochloride (EDC) and N-hydroxysu-ccinimide (NHS) according to the supplier's instructions. Chimera EN10 mAb was diluted with 10 mM sodium acetate, pH 4.8, into 5 microgram/ml before injection at a flow rate of 20 micro L/minute to achieve approximately 100 response units (RU) of coupled protein followed by the injection of 1M ethanolamine to block unreacted groups. For kinetics measurements, two-fold serial dilutions of ENO1 (0.3125 nM to 40 nM) were injected in HBS-P Biacore running buffer provided by the manufacturer (BIAcore, Inc., Piscataway, N.J.) at 25 degree C. at a flow rate of 25 microL/min. and binding responses on the EN10 mAb were corrected by subtraction of responses on a blank flow cell. Association rates (kon or ka) and dissociation rates (koff or kd) were calculated using a simple one-to-one Langmuir binding model with separate fittings of kon and koff was used. (BIAcore™ Evaluation Software version 3.2).

[5] = target: T1, human ENO1 protein; assay: told with the SPR results of FIG. 7B
Excerpt: as §3

[6] = target: T2, ENO1 mutant Q298 to alanine (human, UniProt P06733 1-434); assay: ELISA, ENO1 mutant A298 coated, EN10.5 mAb titrated, four parameter logistic fit
T2 construct: Expressed in E. coli and purified on Ni-agarose
Experimental: (§4) To determine the binding activity of each mutant protein, 400 ng/100 μL of human ENO1 protein or mutated ENO1 protein was coated on a 96-well ELISA plate and incubated overnight at 4° C. and the plate was washed with PBS. The plate was blocked with 1% BSA (w/v) in PBS at room temperature for 1 hour, then washed again with 1×PBS. A primary antibody (EN10.5 mAb) was 2-fold serial diluted to 15 different concentrations and added to the plate at 37° C. for 1 hour. After the reaction was done, the plate was washed 3 times with 1×PBS. A 1/8000 dilution of goat anti-mouse-HRP antibody was added and incubated at 37° C. for 1 hour, then the plate was washed 3 times with 1×PBS. Then, TMB substrate was added and the reaction was allowed to proceed at room temperature for 30 minutes. The reaction was stopped by adding 1N HCl and OD450 was read to determine the activity. Each study was repeated three times. Data are presented as mean±SD. OD readings and concentrations of antibody were used to make a multiple scatter plot using Sigmaplot™. The KD values were predicted by four parameter logistic fit.
(§5) Thus, the crystal structure of ENO1 was downloaded from protein data bank (pdb-entry: 2PSN) to analyze residue positions from this region. […] Every purified ENO1 mutant protein was analyzed for any KD changes by ENO1 binding in ELISA. […]

[7] = target: T3, ENO1 mutant D299 to alanine (human, UniProt P06733 1-434); assay: ELISA, ENO1 mutant A299 coated, EN10.5 mAb titrated, four parameter logistic fit
T3 construct: Expressed in E. coli and purified on Ni-agarose
Experimental: as §4, §5

[8] = target: T4, ENO1 mutant R327 to alanine (human, UniProt P06733 1-434); assay: ELISA, ENO1 mutant A327 coated, EN10.5 mAb titrated
T4 construct: Expressed in E. coli and purified on Ni-agarose
Experimental: as §4, §5

[9] = target: T5, ENO1 mutant G312 to alanine (human, UniProt P06733 1-434); assay: ELISA, ENO1 mutant A312 coated, EN10.5 mAb titrated, four parameter logistic fit
T5 construct: Expressed in E. coli and purified on Ni-agarose
Experimental: as §4, §5

[10] = target: T6, A333 (human); assay: ELISA, ENO1 mutant A333 coated, EN10.5 mAb titrated, four parameter logistic fit
T6 construct: Sixth mutant of the alanine scan; It is named only on the sheets; the text lists five mutants
Experimental: as §4, §5

[11] = target: T7, ENO1 mutant S310 to alanine (human, UniProt P06733 1-434); assay: ELISA, ENO1 mutant A310 coated, EN10.5 mAb titrated, four parameter logistic fit
T7 construct: Expressed in E. coli and purified on Ni-agarose
Experimental: as §4, §5

[12] = target: T8, BSA (Bos taurus, UniProt P02769); assay: ELISA, BSA as background
T8 construct: The sheet prints only 'BSA'; also called bovine serum albumin; BSA background
T8 sequence (P02769 25-607 limits assumed): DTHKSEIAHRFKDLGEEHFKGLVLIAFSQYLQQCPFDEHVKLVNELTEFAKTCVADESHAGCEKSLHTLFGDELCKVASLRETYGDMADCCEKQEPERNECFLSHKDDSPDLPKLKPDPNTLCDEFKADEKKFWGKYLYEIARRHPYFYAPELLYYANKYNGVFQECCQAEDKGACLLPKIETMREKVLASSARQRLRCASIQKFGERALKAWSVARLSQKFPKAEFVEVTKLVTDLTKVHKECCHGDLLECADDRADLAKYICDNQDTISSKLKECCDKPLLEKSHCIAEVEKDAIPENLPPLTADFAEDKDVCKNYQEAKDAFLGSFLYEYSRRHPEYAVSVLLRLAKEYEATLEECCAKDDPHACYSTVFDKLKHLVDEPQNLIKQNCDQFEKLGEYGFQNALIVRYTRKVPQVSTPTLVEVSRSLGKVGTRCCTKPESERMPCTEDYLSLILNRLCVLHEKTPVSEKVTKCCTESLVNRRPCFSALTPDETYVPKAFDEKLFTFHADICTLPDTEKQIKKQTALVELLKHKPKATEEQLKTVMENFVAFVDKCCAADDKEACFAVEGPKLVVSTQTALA

T1 sequence (P06733 whole entry): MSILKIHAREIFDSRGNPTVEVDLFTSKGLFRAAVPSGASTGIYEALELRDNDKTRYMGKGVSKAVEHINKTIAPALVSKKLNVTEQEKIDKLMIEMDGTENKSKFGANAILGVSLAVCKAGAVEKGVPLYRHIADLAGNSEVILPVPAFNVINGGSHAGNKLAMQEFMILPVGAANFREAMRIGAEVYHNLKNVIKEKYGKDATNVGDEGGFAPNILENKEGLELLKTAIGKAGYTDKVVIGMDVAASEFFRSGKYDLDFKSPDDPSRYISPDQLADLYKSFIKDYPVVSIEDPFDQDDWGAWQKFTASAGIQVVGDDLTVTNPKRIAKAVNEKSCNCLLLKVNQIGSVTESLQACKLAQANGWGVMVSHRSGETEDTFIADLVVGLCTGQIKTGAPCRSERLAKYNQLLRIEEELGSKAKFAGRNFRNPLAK
T5 sequence (P06733 other isoform, or with tags, fused parts or gaps mutant limits assumed): as the sequence (P06733 whole entry) above, with G312A counted along it
T7 sequence (P06733 other isoform, or with tags, fused parts or gaps mutant limits assumed): as the sequence (P06733 whole entry) above, with S310A counted along it
T4 sequence (P06733 other isoform, or with tags, fused parts or gaps mutant limits assumed): as the sequence (P06733 whole entry) above, with R327A counted along it
T3 sequence (P06733 other isoform, or with tags, fused parts or gaps mutant limits assumed): as the sequence (P06733 whole entry) above, with D299A counted along it
T2 sequence (P06733 other isoform, or with tags, fused parts or gaps mutant limits assumed): as the sequence (P06733 whole entry) above, with Q298A counted along it

B1: hum EN10 mAb IMGT (antibody, V domains shown)
VH: QVQLVQSGAEVKKPGASVKVSCKASGYTFTSCVMNWVRQAPGQGLEWMGYINPYNDGTKYNEKFKGRVTMTTDTSTSTAYMELRSLRSDDTAVYYCAREGFYYGNFDNWGQGTLVTVSS
VL: DIQMTQSPSSLSASVGDRVTITCRASENIYSYLTWYQQKPGKAPKLLIYNAKTLPEGVPSRFSGSGSGTDFTLTISSLQPEDFATYYCQHHYGTPYTFGQGTKLEIKR
notes: Humanized antibody, human IgG; also called Hum EN10 IMGT; hum ENO10mAb IMGT
**Q.** Which Max. [1] does the source give for B1 here?
**A.** 2.99 O.D 450 nm

**Q.** And the Kd [2]?
**A.** 0.0365 nM

**Q.** What about the Kd [3] of the same binder?
**A.** 0.163 nM

**Q.** What about the Kd [4] of the same binder?
**A.** 0.219 nM

**Q.** What about the Kd [5] of the same binder?
**A.** ~0.203 nM

B2: hum EN10 mAb 4D5 (antibody, V domains shown)
VH: EVQLVESGGGLVQPGGSLRLSCAASGYTFTSCVMNWVRQAPGKGLEWVAYINPYNDGTKYNEKFKGRFTISRDDSKNTLYLQMNSLRAEDTAVYYCAREGFYYGNFDNWGQGTLVTVSS
VL: DIQMTQSPSSLSASVGDRVTITCRASENIYSYLTWYQQKPGKAPKLLIYNAKTLPEGVPSRFSGSGSGTDFTLTISSLQPEDFATYYCQHHYGTPYTFGQGTKLEIKR
notes: Humanized antibody, human IgG; also called hum ENO10mAb 4D5; hum EN10 mAb 45D
**Q.** How did the Kd [4] turn out when B2 was run?
**A.** 0.5 nM

B3: EN10.4 (antibody, V domains shown)
VH: QVQLVQSGAEVKKPGASVKVSCKASGYTFTSAVMNWVRQAPGQGLEWMGYINPYNDGTKYNEKFKGRVTMTTDTSTSTAYMELRSLRSDDTAVYYCAREGFYYGNFDNWGQGTLVTVSS
VL: DIQMTQSPSSLSASVGDRVTITCRASENIYSYLTWYQQKPGKAPKLLIYNAKTLPEGVPSRFSGSGSGTDFTLTISSLQPEDFATYYCQHHYGTPYTFGQGTKLEIKR
notes: same light chain as humEN10 mAb; human IgG from FreeStyle293 cells; also called EN10.4 mAb; alanine mutant of humEN10 mAb antibody
**Q.** Which results are given for B3?
**A.** Max. [1]: 2.94 O.D 450 nm; Kd [3]: 0.14 nM

B4: EN10.5 (antibody, V domains shown)
VH: QVQLVQSGAEVKKPGASVKVSCKASGYTFTSSVMNWVRQAPGQGLEWMGYINPYNDGTKYNEKFKGRVTMTTDTSTSTAYMELRSLRSDDTAVYYCAREGFYYGNFDNWGQGTLVTVSS
VL: DIQMTQSPSSLSASVGDRVTITCRASENIYSYLTWYQQKPGKAPKLLIYNAKTLPEGVPSRFSGSGSGTDFTLTISSLQPEDFATYYCQHHYGTPYTFGQGTKLEIKR
notes: same light chain as humEN10 mAb; human IgG; also called EN10.5 mAb; mAb EN10.5
**Q.** For B4, which Kd [6] is on record?
**A.** 0.238 nM

**Q.** And the Max. [1]?
**A.** 2.97 O.D 450 nm

**Q.** And the Kd [7]?
**A.** 64.3 nM

**Q.** Does B4 bind [8]?
**A.** no binding (tested: about 1e-7 M)

**Q.** What about the Kd [3] of the same binder?
**A.** 0.157 nM

**Q.** What about the Kd [9] of the same binder?
**A.** 0.2 nM

**Q.** What about the Kd [10] of the same binder?
**A.** 0.21 nM

**Q.** What about the Kd [11] of the same binder?
**A.** 0.217 nM

B5: EN10 mAb (antibody, V domains shown)
VH: EVQLQQSGPELVKPGASVKMSCKASGYTFTSCVMNWVKQKPGQGLEWIGYINPYNDGTKYNEKFKGKATLTSDKSSSTAYMELSSLTSEDSAVYYCAREGFYYGNFDNWGQGTTLTVSS
VL: DIQMTQSPASLSASVGETVTITCRASENIYSYLTWYQQKQGKSPQLLVYNAKTLPEGVPSRFSGSGSGTQFSLKINSLQPEDFGSYYCQHHYGTPYTFGGGTKLEITR
notes: Mouse monoclonal antibody purified from hybridoma ascites; also called anti-human ENO1 antibody EN10 mAb; EN10 mAb antibody
**Q.** Does B5 bind [12]?
**A.** no binding
